Assay results taken from IntAct's records for PubMed 20126263.

B1: TP53-binding protein 1 (Mus musculus), P70399-1 (parent)
chain: MPGEQMDPTGSQLDSDFSQQDTPCLIIEDSQPESQVLEEDAGSHFSVLSRHLPNLQMHKENPVLDIVSNPEQSAVEQGDSNSSFNEHLKEKKASDPVESSHLGTSGSISQVIERLPQPNRTSSALAVTVEAASLPEEEKEEEELEEEKEGVGANAPGADSLAAEDSASSQLGFGVLELSQSQDVEEHTVPYDVNQEHLQLVTTNSGSSPLSDVDASTAIKCEEQPTEDIAMIEQPSKDIPVTVQPGKGIHVVEEQNLPLVRSEDRPSSPQVSVAAVETKEQVPARELLEEGPQVQPSSEPEVSSTQEDLFDQSSKTASDGCSTPSREEGGCSPVSTPATTLQLLQLSGQKPLVQESLSTNSSDLVAPSPDAFRSTPFIVPSSPTEQGGRKDEPMDMSVIPVGGEPFQKLHDDEAMETEKPLLPSQPAVSPQASTPVSRSTPVFTPGSLPIPSQPEFSHDIFIPSPSLEEPSDDVKKGGGLHSSSLTVECSKTSESEPKNFTDDLGLSMTGDSCKLMLSTSEYSQSSKMESLGSPRTEEDRENTQIDDTEPLSPVSNSKLPADSENVLVTPSQDDQVEMSQNVDKAKEDETEDRGDCKGREDAVAEDVCIDLTCDSGSQAVPSPATRSEALSSVLDQEEAMDTKEHHPEEGFSGSEVEEVPETPCGSHREEPKEEPMESIPLHLSLTETQSEALCLQKEAPKEECPEAMEVETSVISIDSPQKLQVLDQELEHKDPDTWEEATSEDSSVVIVDVKEPSPRADVSCEPLEEVEKCSDSQSWEGVAPEEEPCAENRLDTPEEKRIECDGDSKAETTEKDAVTEDSPQPPLPSVRDEPVRPDQETQQPQVQEKESPVTVDAEVADDKQLGPEGACQQLEKAPACASQSFCESSSETPFHFTLPKEGDIIPPLTGATPPLIGHLKLEPKRHSTPIGISNYPESTIATSDVTSESMVEINDPLLGNEKGDSESAPEMDGKLSLKMKLVSPETEASEESLQFSLEKPTTAERKNGSTAIAEPVASLQKPVPVFGCIYEAQQEKEAQSEAPPSAPDRANLLHFPSAQEEDKERPDVTPKLRQSEQPVKPVGPVMDDAAPEDSASPVSQQRASQEQRASQEPFSPAEDVMETDLLEGLAANQDRPSKMLMDRPTQSNIGIQTVDHSLCAPETVSAATQTVKSVCEQGTSTAEQNSGKQDATVQTERGSGEKPASAPVDDTESLHSQGEEEFEMPQPPHGHVLHRHMRTIREVRTLVTRVITDVYYVDGTEVERKVTEETEEPIVECQECETEVSPSQTGGSSGDLGDISSFSSKASSSHHTSSGTSLSAIHSSGSSGRGAGPLKGKASGTEAADFALPSSRGGPGKLSPRKGISQTGAPVCEEDGDAGLGIRQGGKAPVTPRGRGRRGRPPSRTTGTRETVVSGPLGVEDISPSMSPDDKSFTRIMPRVPDSTKRTDASSSTLRRSDSPEIPFQAATGSSDGLDSSSSGNSFVGLRVVAKWSSNGYFYSGKITRDVGAGKYKLLFDDGYECDVLGKDILLCDPIPLDTEVTALSEDEYFSAGVVKGHRKESGELYYSIEKEGQRKWYKRMAVILSLEQGNRLREQYGLGPYEAVTPLTKAADISLDNLVEGKRKRRSNISSPVTPTAASSSSTTPTRKATESPRASTGVPSGKRKLPTSEEERSPAKRGRKSATVKPGTVGAAEFVSPCETGDNIGEPSVLEEPRGPLPLNKTLFLGYAFLLTMATTSDKLASRSKLLDGPTGSSEEEEEFLEIPPFNKQYTECQLRAGAGYILEDFNEAQCNTAYQCLLIADQHCRTRKYFLCLASGIPCVSHVWVHDSCHANQLQNYRNYLLPAGYSLEEQRILDWQPRENPFQNLKVLLVSDQQQNFLELWSEILMTGGAASVKQHHSSAHNKDIALGVFDVVVTDPSCPASVLKCAEALQLPVVSQEWVIQCLIVGERIGFKQHPKYKHDYVSH

Variants of: B1
Settings: with plk1_human PLK1, P53350
plk1_human PLK1, P53350, sequence (P53350 whole entry): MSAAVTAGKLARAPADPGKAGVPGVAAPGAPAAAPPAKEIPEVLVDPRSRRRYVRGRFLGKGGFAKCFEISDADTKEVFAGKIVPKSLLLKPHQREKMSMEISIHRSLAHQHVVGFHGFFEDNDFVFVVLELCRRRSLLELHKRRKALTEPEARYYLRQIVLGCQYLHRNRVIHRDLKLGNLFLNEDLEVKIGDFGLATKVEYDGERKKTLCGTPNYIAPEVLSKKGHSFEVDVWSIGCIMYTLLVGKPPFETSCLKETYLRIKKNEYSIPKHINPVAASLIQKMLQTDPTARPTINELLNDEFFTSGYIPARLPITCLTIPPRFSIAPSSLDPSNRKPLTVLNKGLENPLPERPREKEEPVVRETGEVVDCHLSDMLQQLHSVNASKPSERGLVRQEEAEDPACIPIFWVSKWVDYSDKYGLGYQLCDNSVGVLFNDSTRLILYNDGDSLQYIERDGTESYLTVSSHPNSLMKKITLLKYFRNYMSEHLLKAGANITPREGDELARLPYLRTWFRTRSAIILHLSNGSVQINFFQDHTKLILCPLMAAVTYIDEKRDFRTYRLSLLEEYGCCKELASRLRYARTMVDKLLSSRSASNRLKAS

Variant	effect of a mutation on the interaction
S382A	disrupting interaction
